Test results: publication PMC12785156 (2025)
Positions count from the first letter of the chain named.

T1: GST-PUB11-ARM (Arabidopsis thaliana)
T1 chain: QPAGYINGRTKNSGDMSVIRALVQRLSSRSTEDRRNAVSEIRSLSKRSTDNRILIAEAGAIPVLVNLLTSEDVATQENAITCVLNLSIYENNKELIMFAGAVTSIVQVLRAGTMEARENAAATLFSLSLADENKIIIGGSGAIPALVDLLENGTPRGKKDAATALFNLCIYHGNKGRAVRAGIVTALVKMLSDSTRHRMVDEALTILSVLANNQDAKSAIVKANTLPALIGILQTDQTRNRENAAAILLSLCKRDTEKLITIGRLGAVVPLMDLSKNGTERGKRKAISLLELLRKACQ

B1: AtHPPD-F428Y (protein)
chain: MGHQNAAVSENQNHDDGAASSPGFKLVGFSKFVRKNPKSDKFKVKRFHHIEFWCGDATNVARRFSWGLGMRFSAKSDLSTGNMVHASYLLTSGDLRFLFTAPYSPSLSAGEIKPTTTASIPSFDHGSCRSFFSSHGLGVRAVAIEVEDAESAFSISVANGAIPSSPPIVLNEAVTIAEVKLYGDVVLRYVSYKAEDTEKSEFLPGFERVEDASSFPLDYGIRRLDHAVGNVPELGPALTYVAGFTGFHQFAEFTADDVGTAESGLNSAVLASNDEMVLLPINEPVHGTKRKSQIQTYLEHNEGAGLQHLALMSEDIFRTLREMRKRSSIGGFDFMPSPPPTYYQNLKKRVGDVLSDDQIKECEELGILVDRDDQGTLLQIFTKPLGDRPTIFIEIIQRVGCMMKDEEGKAYQSGGCGGFGKGNFSELYKSIEEYEKTLEAKQLVG
modifications: GST carrier omitted. Limits not printed: ARM region taken as everything after the U-box (240-314) to the C-terminus
B2: AtHPPD-F419Y (protein)
chain: B1 chain with F419Y, Y428F
modifications: GST carrier omitted. Limits not printed: ARM region taken as everything after the U-box (240-314) to the C-terminus
B3: AtHPPD-F131Y (protein)
chain: B1 chain with F131Y, Y428F
modifications: GST carrier omitted. Limits not printed: ARM region taken as everything after the U-box (240-314) to the C-terminus
B4: AtHPPD-F47Y (protein)
chain: B1 chain with F47Y, Y428F
modifications: GST carrier omitted. Limits not printed: ARM region taken as everything after the U-box (240-314) to the C-terminus
B5: AtHPPD-F202Y (protein)
chain: B1 chain with F202Y, Y428F
modifications: GST carrier omitted. Limits not printed: ARM region taken as everything after the U-box (240-314) to the C-terminus
B6: AtHPPD-F215Y (protein)
chain: B1 chain with F215Y, Y428F
modifications: GST carrier omitted. Limits not printed: ARM region taken as everything after the U-box (240-314) to the C-terminus
B7: AtHPPD-F424Y (protein)
chain: B1 chain with F424Y, Y428F
modifications: GST carrier omitted. Limits not printed: ARM region taken as everything after the U-box (240-314) to the C-terminus
B8: AtHPPD-F64Y (protein)
chain: B1 chain with F64Y, Y428F
modifications: GST carrier omitted. Limits not printed: ARM region taken as everything after the U-box (240-314) to the C-terminus
B9: His-AtHPPD (Arabidopsis thaliana 4-hydroxyphenylpyruvate dioxygenase) (enzyme)
chain: B1 chain with Y428F
B10: AtHPPD-F132Y (protein)
chain: B1 chain with F132Y, Y428F
modifications: GST carrier omitted. Limits not printed: ARM region taken as everything after the U-box (240-314) to the C-terminus
B11: AtHPPD-F29Y (protein)
chain: B1 chain with F29Y, Y428F
modifications: GST carrier omitted. Limits not printed: ARM region taken as everything after the U-box (240-314) to the C-terminus
B12: AtHPPD-F52Y (antibody)
chain: B1 chain with F52Y, Y428F
modifications: GST carrier omitted. Limits not printed: ARM region taken as everything after the U-box (240-314) to the C-terminus

Key:
[1] = biological target: T1, GST-PUB11-ARM; assay: MST
[2] = biological target: GST; assay: MST

Kd [1] | Kd [2] | Binder
1.3 µM | – | B1
46.7 µM | – | B2
1.26 µM | – | B3
0.23 µM | – | B4
1.65 µM | – | B5
1.59 µM | – | B6
1.75 µM | – | B7
0.37 µM | – | B8
– | > 1000 µM | B9
2.38 µM | – | B10
1.08 µM | – | B11
1.6 µM | – | B12
